The source of these data is publication PMC4409310, “Substrate Recognition and Modification by the Nosiheptide Resistance Methyltransferase” (PLoS ONE, 2015).

B2: HA-His-NHR-R135A (enzyme, Streptomyces actuosus, UniProt P52391 1-274, looked up)
chain: MTEPAIITNASDPAVQRIIDVTKHSRASIKTTLIEDTEPLMECIRAGVQFIEVYGSSGTPLDPALLDLCRQREIPVRLIDVSIVNQLFKAERKAKVFGIARVPRPARLADIAERGGDVVVLDGVKIVGNIGAIVATSLALGAAGIVLVDSDLATIADRRLLRASRGYVFSLPVVLADREEAVSFLRDNDIALMVLDTDGDLGVKDLGDRADRMALVFGSEKGGPSGLFQEASAGTVSIPMLSSTESLNVSVSVGIALHERSARNFAVRRAAAQA
notes: nosiheptide resistance methyltransferase (NHR), Streptomyces actuosus; Homodimer when alone; in the heterodimer with Flag-Trx-His-NHR one chain of each construct; also called HA-NHR-R135A; HA-R135A-NHR; source: site-directed mutagenesis of His-NHR, HA tag added by PCR; purified (Ni-NTA, gel filtration); not shown: His6, N-terminal, kept

Series [1] deals with the molecule itself. Nature of the series: native gel or EMSA; differently tagged (short and long) NHR proteins mixed at 4°C overnight, then incubated with 58 nt or 29 nt RNA (6-10 μM RNA, 2-10 μM protein) for 1 hour at 4°C in 25 mM Hepes-KOH, 25 mM NH4Cl, 5 mM MgCl2, 5 mM DTT, pH 8.0; 6% polyacrylamide native gel, SYBR Gold; dimers seen as RNA-protein complexes. On the technique in general: A gel shift assay detects complexes by their altered migration in electrophoresis.

For series [2], the target named is B2. Described as above. As to conditions: both partners purified.

B1: N-terminal hexahistidine tagged nosiheptide resistance methyltransferase (His-NHR) (enzyme, Streptomyces actuosus, UniProt P52391 1-274, looked up)
chain: MTEPAIITNASDPAVQRIIDVTKHSRASIKTTLIEDTEPLMECIRAGVQFIEVYGSSGTPLDPALLDLCRQREIPVRLIDVSIVNQLFKAERKAKVFGIARVPRPARLADIAERGGDVVVLDGVKIVGNIGAIVRTSLALGAAGIVLVDSDLATIADRRLLRASRGYVFSLPVVLADREEAVSFLRDNDIALMVLDTDGDLGVKDLGDRADRMALVFGSEKGGPSGLFQEASAGTVSIPMLSSTESLNVSVSVGIALHERSARNFAVRRAAAQA
notes: nosiheptide resistance methyltransferase (NHR), Streptomyces actuosus; wild type; Homodimer when alone; in the heterodimer with Trx-NHR one chain of each construct; also called NHR(S); short, S; source: over expressed from pET-28a-NHR, purified (Ni-NTA, gel filtration); not shown: His6, N-terminal, kept
The stoichiometry N is the number of molecules, sites or subunits per partner or assembly. For B1, the “stoichiometry N” value in series [1] was 2.
The same measure, in the same setting: for B2 the value was 2.

B3: thioredoxin tagged nosiheptide resistance methyltransferase (Trx-NHR) (enzyme, Streptomyces actuosus, UniProt P52391 1-274, looked up)
chain: MTEPAIITNASDPAVQRIIDVTKHSRASIKTTLIEDTEPLMECIRAGVQFIEVYGSSGTPLDPALLDLCRQREIPVRLIDVSIVNQLFKAERKAKVFGIARVPRPARLADIAERGGDVVVLDGVKIVGNIGAIVRTSLALGAAGIVLVDSDLATIADRRLLRASRGYVFSLPVVLADREEAVSFLRDNDIALMVLDTDGDLGVKDLGDRADRMALVFGSEKGGPSGLFQEASAGTVSIPMLSSTESLNVSVSVGIALHERSARNFAVRRAAAQA
notes: nosiheptide resistance methyltransferase (NHR), Streptomyces actuosus; wild type; Homodimer when alone; in the heterodimer with His-NHR one chain of each construct; Named Trx-His-NHR in the methods; also called Trx-His-NHR; NHR(L); source: over expressed from pET-32M-NHR, purified (Ni-NTA, gel filtration); not shown: thioredoxin, N-terminal, kept
Turning to B3, the “stoichiometry N” value in series [1] stood at 2.

B4: Flag-Trx-His-NHR (enzyme, Streptomyces actuosus, UniProt P52391 1-274, looked up)
chain: MTEPAIITNASDPAVQRIIDVTKHSRASIKTTLIEDTEPLMECIRAGVQFIEVYGSSGTPLDPALLDLCRQREIPVRLIDVSIVNQLFKAERKAKVFGIARVPRPARLADIAERGGDVVVLDGVKIVGNIGAIVRTSLALGAAGIVLVDSDLATIADRRLLRASRGYVFSLPVVLADREEAVSFLRDNDIALMVLDTDGDLGVKDLGDRADRMALVFGSEKGGPSGLFQEASAGTVSIPMLSSTESLNVSVSVGIALHERSARNFAVRRAAAQA
notes: nosiheptide resistance methyltransferase (NHR), Streptomyces actuosus; wild type; Homodimer when alone; in the heterodimer with HA-His-NHR-R135A one chain of each construct; also called Flag-NHR; Flag-Trx-NHR; source: Flag tag added to Trx-His-NHR by PCR; purified (Ni-NTA, gel filtration); not shown: thioredoxin, N-terminal, kept
On to B4, for which the binding result in series [2] is recorded as “binds”. Further, the “stoichiometry N” value in series [1] was 2.
